Measured values reported in patent publication US20250326840A1 (QURE BIOTECHNOLOGY SHANGHAI, published 2025).
Positions count from the first letter of the chain named. Names and notes keep the numbering of the source. Read-outs that look alike come from different tables or passages of the source. One block for each binder: values may come before it.

What was measured:
[1] = target: T1, PD-L1-his (QPP09) (human, UniProt Q9NZQ7 19-239, limits assumed); experiment: SPR, Biacore 8K
T1 construct: also called human PD-L1; human PD-L1 recombinant protein
T1 sequence (Q9NZQ7 19-239 limits assumed): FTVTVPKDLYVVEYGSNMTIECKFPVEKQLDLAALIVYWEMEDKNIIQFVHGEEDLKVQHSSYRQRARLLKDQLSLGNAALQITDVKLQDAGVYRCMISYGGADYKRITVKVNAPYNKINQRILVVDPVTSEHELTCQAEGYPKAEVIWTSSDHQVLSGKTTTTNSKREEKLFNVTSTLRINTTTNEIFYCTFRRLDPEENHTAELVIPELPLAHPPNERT

[2] = target: T2, PD-L1-mouse Fc protein (human, UniProt Q9NZQ7 19-239, limits assumed); experiment: blocking ELISA: QP1138 (PD1-FC) coated, PDL1-mouse FC mixed with the antibody, HRP anti-mouse IgG; blocked partner: PD-1; unit from the x axis Log(Conc.(nM))
T2 sequence (Q9NZQ7 19-239 limits assumed): as above

[3] = target: QP003 (PDL1-his); experiment: ELISA, QP003 (PDL1-his) captured on coated anti-his, anti-hFc detection; unit from the x axis Log(Conc.(nM))
Chain of QP003 (PDL1-his) (chain, as listed by the source limits assumed): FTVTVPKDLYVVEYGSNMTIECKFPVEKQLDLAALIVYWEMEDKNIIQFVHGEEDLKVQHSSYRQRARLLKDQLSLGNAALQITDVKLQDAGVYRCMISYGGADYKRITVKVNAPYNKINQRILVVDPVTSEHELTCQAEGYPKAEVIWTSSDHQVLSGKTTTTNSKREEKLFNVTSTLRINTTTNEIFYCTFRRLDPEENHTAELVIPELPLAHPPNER

[4] = target: T3, QP009 (SIRPα) (Homo sapiens (Human)); experiment: ELISA of hybridoma supernatant on QP009
T3 construct: Entry includes a C-terminal flag-his tag as printed; also called recombinant protein QP009
T3 chain: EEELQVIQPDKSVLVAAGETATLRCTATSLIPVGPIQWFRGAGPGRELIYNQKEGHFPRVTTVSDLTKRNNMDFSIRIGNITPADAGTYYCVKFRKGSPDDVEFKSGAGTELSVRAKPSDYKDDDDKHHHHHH

[5] = target: T4, QP096 (human SIRPα V2 ECD(E31-R370)-flag-his) (human); experiment: SPR, Biacore T200
T4 construct: the construct carries flag and his tags; also called SIRPαV2-Flag-his; Human SIRPα V2 (QP096)

[6] = target: T5, QP094 (human SIRPα V1 ECD(E31-R370)-flag-his) (human, UniProt P78324 31-370); experiment: SPR, Biacore T200
T5 construct: the construct carries flag and his tags; also called SIRPαV1-flag-his; SIRPαV1-his (QP094)

[7] = target: T6, QP002 (biotinylated in the blocking assays, sites not given); experiment: blocking ELISA: CD47 FC (QP001) coated, biotin SIRPα-FC (QP002) mixed with the antibody, HRP-streptavidin; blocked ligand: CD47; unit from the x axis Log(Conc.(nM))
T6 construct: also called SIRPα-FC; Biotin-QP002

[8] = target: T2, PD-L1-mouse Fc protein; experiment: competitive ELISA, CD80 coated, PD-L1-mouse Fc
[9] = target: T7, human PD-L1 on HCC827 cells (human, UniProt Q9NZQ7 19-290); experiment: FACS on HCC827 cells
T7 construct: whole, on cells; also called HCC827 cells naturally expressing human PD-L1
T7 sequence (Q9NZQ7 19-290): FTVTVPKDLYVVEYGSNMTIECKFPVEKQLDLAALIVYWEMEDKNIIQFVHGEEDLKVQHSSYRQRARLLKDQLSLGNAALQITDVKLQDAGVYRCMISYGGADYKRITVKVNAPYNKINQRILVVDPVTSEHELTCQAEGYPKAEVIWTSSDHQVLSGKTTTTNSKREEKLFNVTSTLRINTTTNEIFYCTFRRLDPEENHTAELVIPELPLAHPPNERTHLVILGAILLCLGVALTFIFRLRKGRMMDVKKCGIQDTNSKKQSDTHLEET

[10] = target: T1, PD-L1-his (QPP09); experiment: ELISA, PD-L1 captured by coated anti-HIS antibody
[11] = target: T2, PD-L1-mouse Fc protein; experiment: competitive ELISA, PD-1 coated, PD-L1-mouse Fc
[12] = target: T8, Rhesus PD-L1 (rhesus monkey, UniProt F6PJN1 19-239); experiment: SPR, Biacore 8K
T8 construct: also called rhesus monkey PD-L1

[13] = target: T1, PD-L1-his (QPP09); experiment: SPR, Biacore 8K; remark: listed apart in the source
[14] = target: T9, QP098 (cyno SIRPα (I7G9Z7) ECD(E31-R369)-flag-his) (cynomolgus); experiment: SPR, Biacore 8K
T9 construct: the construct carries flag and his tags; also called cynoSIRPα (ECD); cynomolgus SIRPα
T9 chain: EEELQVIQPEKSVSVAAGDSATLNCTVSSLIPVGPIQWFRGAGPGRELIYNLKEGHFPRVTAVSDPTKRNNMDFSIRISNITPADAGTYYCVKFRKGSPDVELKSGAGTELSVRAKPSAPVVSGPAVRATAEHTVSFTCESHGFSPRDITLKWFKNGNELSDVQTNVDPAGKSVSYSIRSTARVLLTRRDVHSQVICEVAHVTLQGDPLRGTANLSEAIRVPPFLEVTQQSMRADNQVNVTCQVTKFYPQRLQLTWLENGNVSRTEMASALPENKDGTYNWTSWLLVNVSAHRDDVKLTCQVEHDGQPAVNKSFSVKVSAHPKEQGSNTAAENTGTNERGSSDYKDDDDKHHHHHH

[15] = target: T10, QP271 (rhesus SIRPα1-flag-his T-557-28) (rhesus monkey); experiment: SPR, Biacore 8K
T10 construct: also called rhesus monkey SIRPα (QP271); monkeySIRPα1-flag-his
T10 chain: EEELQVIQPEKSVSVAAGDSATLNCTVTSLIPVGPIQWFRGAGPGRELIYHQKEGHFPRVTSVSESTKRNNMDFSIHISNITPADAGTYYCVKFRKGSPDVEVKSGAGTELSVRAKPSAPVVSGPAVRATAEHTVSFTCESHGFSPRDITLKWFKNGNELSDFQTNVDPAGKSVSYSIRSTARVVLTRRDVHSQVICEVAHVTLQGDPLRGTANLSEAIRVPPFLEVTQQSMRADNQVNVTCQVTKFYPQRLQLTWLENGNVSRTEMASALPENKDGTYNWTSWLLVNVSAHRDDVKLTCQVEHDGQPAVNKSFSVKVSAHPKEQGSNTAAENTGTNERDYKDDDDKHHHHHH

[16] = target: T6, QP002; experiment: blocking ELISA: QP001.2 (CD47) coated, biotin-QP002 (SIRPα-FC) mixed with the antibody, HRP-streptavidin; blocked ligand: CD47
[17] = target: T4, QP096 (human SIRPα V2 …); experiment: SPR, Biacore
[18] = target: T9, QP098 (cyno SIRPα (I7G9Z7) …); experiment: SPR, Biacore
[19] = target: T5, QP094 (human SIRPα V1 …); experiment: SPR, Biacore
[20] = target: T11, QP273 (cynoSIRPα2-flag-his T-557-14) (cynomolgus); experiment: SPR, Biacore
T11 construct: also called cynomolgus SIRPα (QP273)
T11 chain: T10 chain with D19E, V27A, A42V, H51S, S62P, E65D, S66P, H77R, V103L

[21] = target: T10, QP271 (rhesus SIRPα1-flag-his T-557-28); experiment: SPR, Biacore
[22] = target: T4, QP096 (human SIRPα V2 …); experiment: SPR, Biacore; remark: listed apart in the source
[23] = target: T5, QP094 (human SIRPα V1 …); experiment: SPR, Biacore; remark: listed apart in the source
[24] = target: T12, QP100 (cyno SIRPα (G7PGS8) ECD(E29-R368)-flag-his) (cynomolgus); experiment: SPR, Biacore
T12 construct: the construct carries flag and his tags; also called cynoSIRPα-flag-his; Cynomolgus SIRPα (QP100)
T12 chain: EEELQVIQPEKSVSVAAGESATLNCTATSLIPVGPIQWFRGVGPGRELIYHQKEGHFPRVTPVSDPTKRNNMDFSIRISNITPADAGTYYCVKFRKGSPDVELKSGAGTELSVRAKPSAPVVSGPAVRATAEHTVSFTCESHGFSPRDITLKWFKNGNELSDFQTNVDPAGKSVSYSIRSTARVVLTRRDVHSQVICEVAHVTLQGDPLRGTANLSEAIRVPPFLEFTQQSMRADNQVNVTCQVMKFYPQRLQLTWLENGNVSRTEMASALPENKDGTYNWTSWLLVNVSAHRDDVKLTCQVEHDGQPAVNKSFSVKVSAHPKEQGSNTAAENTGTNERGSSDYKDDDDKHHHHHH

[25] = target: T4, QP096 (human SIRPα V2 …); experiment: binding ELISA, antigen coated
[26] = target: T9, QP098 (cyno SIRPα (I7G9Z7) …); experiment: binding ELISA, antigen coated
[27] = target: T5, QP094 (human SIRPα V1 …); experiment: binding ELISA, antigen coated
[28] = target: T12, QP100 (cyno SIRPα (G7PGS8) …); experiment: binding ELISA, antigen coated
[29] = target: T11, QP273 (cynoSIRPα2-flag-his T-557-14); experiment: binding ELISA, antigen coated
[30] = target: T10, QP271 (rhesus SIRPα1-flag-his T-557-28); experiment: binding ELISA, antigen coated

B3: QP026027 (antibody, human IgG1, kappa)
heavy: not shown
light: QIVLTQSPAIMSASPGEKVTLTCSASSSVSSSYLYWYQQKPGSSPKLWIYSTSNLASGVPARFSGSGSGTSYSLTISSMEAEDAASYFCHQWSSYPRTFGAGTKLELKRTVAAPSVFIFPPSDEQLKSGTASVVCLLNNFYPREAKVQWKVDNALQSGNSQESVTEQDSKDSTYSLSSTLTLSKADYEKHKVYACEVTHQGLSSPVTKSFNRGEC
notes: also called KWAR23 (QP026027); control antibody KWAR23, human IgG1
Kd [5]: 12.3 nM | koff [5]: 0.0246 s⁻¹ | kon [5]: 2.01e+06 M⁻¹ s⁻¹ | Kd [6]: 5.12 nM | koff [6]: 0.00465 s⁻¹ | kon [6]: 908000 M⁻¹ s⁻¹ | IC50 [7]: 0.295 nM

B4: Q-1801 (bispecific antibody, human IgG1, kappa, L234A L235A)
heavy: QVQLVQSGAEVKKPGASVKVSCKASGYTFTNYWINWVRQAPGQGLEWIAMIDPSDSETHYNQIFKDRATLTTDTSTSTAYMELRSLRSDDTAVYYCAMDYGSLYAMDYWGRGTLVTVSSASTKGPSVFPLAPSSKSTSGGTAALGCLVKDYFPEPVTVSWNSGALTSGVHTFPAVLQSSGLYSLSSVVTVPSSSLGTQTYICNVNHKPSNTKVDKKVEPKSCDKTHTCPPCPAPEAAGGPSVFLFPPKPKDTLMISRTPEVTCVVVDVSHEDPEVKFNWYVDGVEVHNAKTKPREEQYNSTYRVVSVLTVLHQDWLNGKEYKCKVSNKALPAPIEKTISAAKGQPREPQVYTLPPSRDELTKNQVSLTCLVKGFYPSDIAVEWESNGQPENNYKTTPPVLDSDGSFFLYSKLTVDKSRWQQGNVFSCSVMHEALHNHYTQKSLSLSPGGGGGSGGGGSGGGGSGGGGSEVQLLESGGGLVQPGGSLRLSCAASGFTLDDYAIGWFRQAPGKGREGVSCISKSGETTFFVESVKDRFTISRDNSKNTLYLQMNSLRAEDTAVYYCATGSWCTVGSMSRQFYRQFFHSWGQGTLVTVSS
light: DIVLTQSPDSLAVSLGERATINCRASQSVRSSGYNWIFWYQQKPGQPPKLLIYLASNRDSGVPDRFSGSGSGTDFTLTISSLQAEDVAVYYCQHSRELPTFGQGTKLEIKRTVAAPSVFIFPPSDEQLKSGTASVVCLLNNFYPREAKVQWKVDNALQSGNSQESVTEQDSKDSTYSLSSTLTLSKADYEKHKVYACEVTHQGLSSPVTKSFNRGEC
notes: Anti-SIRPα VH-CH1-Fc(L234A, L235A, K338A)-(G4S)4-anti-PD-L1 VHH heavy chain; kept as one molecule; also called CHO44; QP32820279
IC50 [8]: 0.742 nM | EC50 [9]: 0.142 nM | Kd [1]: 0.429 nM | koff [1]: 0.000433 s⁻¹ | kon [1]: 1.01e+06 M⁻¹ s⁻¹ | EC50 [10]: 0.122 nM | IC50 [2]: 0.382 nM | EC50 [3]: 0.0307 nM | IC50 [11]: 0.904 nM | Kd [12]: 0.499 nM | koff [12]: 0.000779 s⁻¹ | kon [12]: 1.56e+06 M⁻¹ s⁻¹ | Kd [13]: 0.431 nM | koff [13]: 0.000433 s⁻¹ | kon [13]: 1.01e+06 M⁻¹ s⁻¹ | Kd [14]: 2.14 nM | koff [14]: 0.0117 s⁻¹ | kon [14]: 5.46e+06 M⁻¹ s⁻¹ | Kd [15]: 0.522 nM | koff [15]: 0.00303 s⁻¹ | kon [15]: 5.81e+06 M⁻¹ s⁻¹

B5: QP256253 (antibody, human IgG4, V domains shown)
VH: QVQLVQSGAEVKKPGASVKVSCKASGYTFTNYWINWVRQAPGQGLEWIAMIDPSDSETHYNQIFKDRATLTTDTSTSTAYMELRSLRSDDTAVYYCAMDYGSLYAMDYWGRGTLVTVSS
VL: DIVLTQSPDSLAVSLGERATINCRASKSVSSSGYNYIFWYQQKPGQPPKLLIYLASNLDSGVPDRFSGSGSGTDFTLTISSLQAEDVAVYYCQHSRELPTFGQGTKLEIK
notes: also called humanized antibody QP256253; QP163164 humanized clone
IC50 (read off the curve) [16]: ~20 ng/mL | Kd [17]: 0.276 nM | Kd [18]: 26.8 nM | Kd [19]: 0.26 nM | Kd [20]: 12.7 nM | Kd [21]: 7.97 nM | Kd [22]: 0.319 nM | koff [22]: 0.00109 s⁻¹ | kon [22]: 3.42e+06 M⁻¹ s⁻¹ | Kd [23]: 0.336 nM | koff [23]: 0.00079 s⁻¹ | kon [23]: 2.35e+06 M⁻¹ s⁻¹ | Kd [24]: 77.9 nM | koff [24]: 0.196 s⁻¹ | kon [24]: 2.52e+06 M⁻¹ s⁻¹ | EC50 [25]: 1.19 ng/mL | EC50 [26]: 1.26 ng/mL | EC50 [27]: 1.19 ng/mL | EC50 [28]: 1.72 ng/mL | EC50 [29]: 1.51 ng/mL | EC50 [30]: 0.947 ng/mL

Second part, the binder after the results:

Kd [1]: 1.29 nM | koff [1]: 0.00103 s⁻¹ | kon [1]: 801000 M⁻¹ s⁻¹ | IC50 [2]: 0.59 nM | EC50 [3]: 0.0133 nM
B1: QP32700625 (bispecific antibody, human IgG1, kappa, L234A L235A)
heavy: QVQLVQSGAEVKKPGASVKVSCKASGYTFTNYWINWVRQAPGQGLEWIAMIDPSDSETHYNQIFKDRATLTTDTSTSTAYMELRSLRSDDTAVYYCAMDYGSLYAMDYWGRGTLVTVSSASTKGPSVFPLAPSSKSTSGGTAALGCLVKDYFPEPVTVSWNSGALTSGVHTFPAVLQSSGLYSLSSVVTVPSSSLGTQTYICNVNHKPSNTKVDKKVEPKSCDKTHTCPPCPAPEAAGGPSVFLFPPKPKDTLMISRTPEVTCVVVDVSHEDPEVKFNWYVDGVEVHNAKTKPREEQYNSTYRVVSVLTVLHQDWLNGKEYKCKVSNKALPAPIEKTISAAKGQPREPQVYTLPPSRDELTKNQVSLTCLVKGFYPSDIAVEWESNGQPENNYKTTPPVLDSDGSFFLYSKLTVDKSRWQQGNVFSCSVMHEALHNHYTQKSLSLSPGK
light: EVQLLESGGGLVQPGGSLRLSCAASGFTLDDYAIGWFRQAPGKGREGVSCISKSGETTFFVESVKDRFTISRDNSKNTLYLQMNSLRAEDTAVYYCATGSWCTVGSMSRQFYRQFFHSWGQGTLVTVSSGGGGSGGGGSGGGGSDIVLTQSPDSLAVSLGERATINCRASQSVRSSGYNWIFWYQQKPGQPPKLLIYLASNRDSGVPDRFSGSGSGTDFTLTISSLQAEDVAVYYCQHSRELPTFGQGTKLEIKRTVAAPSVFIFPPSDEQLKSGTASVVCLLNNFYPREAKVQWKVDNALQSGNSQESVTEQDSKDSTYSLSSTLTLSKADYEKHKVYACEVTHQGLSSPVTKSFNRGEC
notes: Anti-PD-L1 VHH-(G4S)3 fused to the N-terminus of the light chain

binding result [4]: binds
B2: 71C10 (antibody, V domains shown)
VH: QVQLQQPGTELVRPGASVKLSCKASGYTFTNYWINWVKQRPGQGLEWIAMIDPSDSETHYNQIFKDKATLTVDKSSNTAYMQLSSLTSGDSAVYYCAMDYGSLYAMDYWGRGTSVTVSS
VL: DIVLTQSPASLAVSLGQRATISCRASKSVSSSGYNYIFWYQQKPGQPPKLLIYLASNLDSGVPARFSGSGSGTDFTLNIHPVEEEDAATYYCQHSRELPTFGGGTKLEIK
notes: Mouse hybridoma antibody tested as culture supernatant; also called hybridoma monoclonal antibody 71C10; single-cell clone 71C10
